Assay results published in patent publication US20090305961.

Test system: plasminogen

human low molecular weight urokinase-plasminogen activator (LMW-u-PA)
amidolytic activity, chromogenic substrates Chromozyme U and S-2251, absorbance at 405 nm: Cells transfected with pLMW-u-PA showed much higher levels of u-PA activity compared to cells transfected with pSPUC1A
